Results taken from the RNAGym collection of RNA variant scans (doi:10.1021/acssynbio.7b00057).

B1: Pistol ribozyme (parent)
chain: GGGUCGUUGUUCCAUAAUCGCGUGGAUAUGGCACGCAAGUUUCUACCGGGCACCGUAAAUGUCCGACUGGAGCCGUUCGGGCGGCUAUAAACAGACCUCAGGCCCGAAGCGUGGCGGCACCUGCCGCCGGUGGUAAAAAAGAUCGGAAGAGCACACGUCU

Variants of: B1
Assay: aptazyme ON/OFF ratio, guanine; higher = stronger switching; co-transcriptional cleavage with and without guanine

| Variant | aptazyme ON/OFF ratio |
| --- | --- |
| U7G U8G U10A U11C C12U C13A | 1.42 |
| U7G U8G U10A U11C C12U C13U | 1.5 |
| U7G U8G U10A U11C C12U C13G | 1.25 |
| U7G U8G G9U U10G U11A C12G C13G | 1.15 |
| U7G U8G G9U U10G U11A C12G C13U | 1.14 |
| U7G U8G G9U U10G U11A C12G C13A | 1.08 |
| U7G U8G G9U U11G C13U | 1.42 |
| U7G U8G G9U U11G C13G | 1.19 |
| U7G U8G G9U U11G C13A | 1.2 |
| U7G U8G G9U U10G U11G C12U C13G | 1.12 |
| U7G U8G G9U U10G U11G C12U C13U | 1.18 |
| U7G U8G G9U U10G U11G C12U C13A | 1.11 |
| U7G U8G G9U U11C C12G C13A | 1.14 |
| U7G U8G G9U U11C C12G C13U | 1.43 |
| U7G U8G G9U U11C C12G C13G | 1.17 |
| U7G U8G G9U U10G U11A C12U C13U | 1.2 |
| U7G U8G G9U U10G U11A C12U C13A | 1.1 |
| U7G U8G G9U U10G U11A C12U C13G | 1.19 |
| U7G U8G U10A U11G C12A C13A | 1.05 |
| U7G U8G U10A U11G C12A C13G | 1.15 |
| U7G U8G U10A U11G C12A C13U | 1.37 |

| Variant | aptazyme ON/OFF ratio |
| --- | --- |
| U7G U8G U10A C12G C13G | 1.2 |
| U7G U8G U10A C12G C13U | 0.978 |
| U7G U8G U10A C12G C13A | 1.16 |
| U7G U8G G9U U11G C12A | 1.32 |
| U7G U8G G9U U11G C12G | 1.41 |
| U7G U8G G9U U11G C12U | 1.45 |
| U7G U8G G9U U10G U11C C12A C13G | 1.11 |
| U7G U8G G9U U10G U11C C12A C13U | 1.1 |
| U7G U8G G9U U10G U11C C12A C13A | 1.1 |
| U7G U8G U10A U11A C12G C13G | 1.26 |
| U7G U8G U10A U11A C12G C13A | 1.22 |
| U7G U8G U10A U11A C12G C13U | 1.13 |
| U7G U8G G9U U11C C12A C13G | 1.15 |
| U7G U8G G9U U11C C12A C13A | 1.23 |
| U7G U8G G9U U11C C12A C13U | 1.23 |
| U7G U8G G9U U11A C12G | 1.29 |
| U7G U8G G9U U11A C12U | 1.54 |
| U7G U8G G9U U11A C12A | 1.43 |
| U7G U8G U10A U11G C12G C13G | 1.23 |
| U7G U8G U10A U11G C12G C13A | 1.15 |
| U7G U8G U10A U11G C12G C13U | 1.22 |

| Variant | aptazyme ON/OFF ratio |
| --- | --- |
| U7G U8G U10A C12U | 1.45 |
| U7G U8G U10A C12G | 1.29 |
| U7G U8G U10A C12A | 1.28 |
| U7G U8G U10A U11G C13U | 1.33 |
| U7G U8G U10A U11G C13A | 1.18 |
| U7G U8G U10A U11G C13G | 1.18 |
| U7G U8G G9U U11C C12U C13G | 1.38 |
| U7G U8G G9U U11C C12U C13A | 1.35 |
| U7G U8G G9U U11C C12U C13U | 1.33 |
| U7G U8G U10A U11A C12U | 1.25 |
| U7G U8G U10A U11A C12G | 1.22 |
| U7G U8G U10A U11A C12A | 1.13 |
| U7G U8G G9U U10G U11G C13A | 1.06 |
| U7G U8G G9U U10G U11G C13U | 1.11 |
| U7G U8G G9U U10G U11G C13G | 1.08 |
| U7G U8G G9U U10G U11A C12A | 1.13 |
| U7G U8G G9U U10G U11A C12G | 1.16 |
| U7G U8G G9U U10G U11A C12U | 1.27 |
| U7G U8G G9U U10G U11G C12G C13G | 1.06 |
| U7G U8G G9U U10G U11G C12G C13A | 1.09 |
| U7G U8G G9U U10G U11G C12G C13U | 1.14 |

| Variant | aptazyme ON/OFF ratio |
| --- | --- |
| U7G U8G G9U U11C C13A | 1.4 |
| U7G U8G G9U U11C C13G | 1.1 |
| U7G U8G G9U U11C C13U | 1.41 |
| U7G U8G G9U U10G U11G C12A C13G | 1.1 |
| U7G U8G G9U U10G U11G C12A C13U | 1.06 |
| U7G U8G G9U U10G U11G C12A C13A | 1.04 |
| U7G U8G G9U U11A C12U C13A | 1.33 |
| U7G U8G G9U U11A C12U C13U | 1.23 |
| U7G U8G G9U U11A C12U C13G | 1.28 |
| U7G U8G G9U U11C C12A | 1.8 |
| U7G U8G G9U U11C C12G | 1.43 |
| U7G U8G G9U U11C C12U | 1.65 |
| U7G U8G G9U U10G U11G | 1.81 |
| U7G U8G G9U U10G U11C | 1.1 |
| U7G U8G G9U U10G U11A | 1.4 |
| U7G U8G U10A | 2.24 |
| U7G U8G U10C | 1.38 |
| U7G U8G G9U U10G U11A C13A | 1.13 |
| U7G U8G G9U U10G U11A C13G | 1.16 |
| U7G U8G G9U U10G U11A C13U | 1.19 |
